Measurements reported in publication PMC8096248.

B1: PriL, large subunit of primase, T. kodakarensis, recombinant (natural protein)
chain: MLDPFGKRAESLIREEFGDLLALLERVPSAISVEEPISLVSWMLESENPPQELVEVDNLEELRDLFKFYALLGAASISPYGLEAEVVKRATLRLYSERIKASKNLSETMLPVVPVGENEIPHNDLNILERRMDRNLSPEEKEKLKIKYKIPIKDLLNLWGSSLKEVYIRNGYAYLRWETALKMWEKAFEKRFERAVNILYEYRDELPEFYHRLREKLEEIAEEYFKERGEMFKGTASPLRFDLFPPCVKEALKGVPAGMRNYAITVLLTSFLSYARICPNPPKKDVRIKDCINDLKIIEEEILPVIIEAGNRCKPPLFEDQPHEIKNIWYHLGFGLTDSPTMEDSGNSTWYFPPNCDKIRANAPQLCKPDKYCRGIKNPLSYYLKRLYLEGKKKEGETSE
B2: PriS, small subunit of primase, T. kodakarensis, recombinant (natural protein)
chain: MSKLLREVTPEERRLYYSGEWDAKKLPEFIVESIERREFGFDHTGEGPSDRKNAFSDVRDLEDYIRATAPYAAYSSVAFYRNPQEMEGWLGAELVFDIDAKDLPLRRCQNEHPSGQVCPICLEDAKELARDTLIILKEDFGFENIHVVYSGRGYHIRVIDEWALKLDSKARERILSYVSAAEEVTFDDIQKRYIMLSSGYFRVFRLRFGYFIQRINENHLKNIGLKRSTAEKLLDEKTRQDIVEKFVNKGLLAAFPEGVGYRTLLRLFGLSTTFSKAYFDGRVTVDLKRILRLPSTLHSKVGLVATYIGSDEKRLEKFDPFKDAVPEFRKEEVQKAYQEWKELHEG
B3: primed DNA d29/d45 (dsDNA)
DNA 1: GGTACCGGGCCCCCCCTCGAGGTCGACGG
DNA 2: ATCAAGCTTATCGATACCGTCGACCTCGAGGGGGGGCCCGGTACC
modifications: 3'-OH of d29 replaced by NH2

Key:
[1] = target: family-D DNA polymerase (PolD), DP1–DP2 complex, T. kodakarensis, recombinant wild type (Thermococcus kodakarensis) (UniProt Q5JET0); assay: SPR
PolD cPIP mutant;PCNA1 = PolD cPIP mutant;PCNA1 (Thermococcus kodakarensis;Thermococcus …, UniProt Q5JET1;Q5JET0;Q5JF32 1-735;1-963+1438-1798;1-249, L1792A;F1795A;F1796A;internal_change|); assay: gel filtration
PolD (DP1-DP2);PCNA1 = PolD (DP1-DP2);PCNA1 (Thermococcus kodakarensis;Thermococcus …, UniProt Q5JET1;Q5JET0;Q5JET0;Q5JF32 1-735;1-963;1438-1798;1-249, |); assay: gel filtration

Binder	Kd [1]	binding result (PolD cPIP mutant;PCNA1)	binding result (PolD (DP1-DP2);PCNA1)
B1	160 nM		
B2	1400 nM		
B3		binds	binds
